Measured values reported in patent US10052364B2, “Osteocalcin as a treatment for cognitive disorders” (THE TRUSTEES OF COLUMBIA UNIVERSITY IN THE CITY OF NEW YORK, priority 2013, dated 2018).

What was measured:
WT mice = experiment: Contextual Fear Conditioning after acute hippocampal injection; assay type: in vivo, mouse; details: for freezing behavior compared to controls, 24 hours after the initial shocks: 10 ng injected acutely in both hemispheres, n=4 per group
Procedure: FIG. 11. CREB activation by osteocalcin is functionally relevant. Contextual fear conditioning in 3.5 month old mice injected acutely with 10 ng recombinant uncarboxylated osteocalcin 24 hours prior to context exposure. 3 shocks of 0.55 mA were delivered to mice 1 min apart.
To determine whether these acute injections and corresponding activation of the CREB pathway are functionally relevant, Contextual Fear Conditioning (CFC), a hippocampus dependent task that assesses long term memory, was performed. Mice were injected acutely in both hemispheres with either PBS or 10 ng recombinant uncarboxylated osteocalcin.

[1] = system: neurons in the brain (WT brain sections); experiment: Binding of biotinylated osteocalcin to brain sections (anti-biotin immunofluorescence, competition); set-up: species or system mouse
Procedure: FIG. 3. Osteocalcin binds to neurons in the brain. (A) Measurement of the total osteocalcin in 3 month-old Osteocalcin^−/− mice infused subcutaneously for 7 days with either uncarboxylated osteocalcin (300 ng/hour, right panel) or PBS (left panel). Osteocalcin levels were measured in bone, serum, and different parts of the brain (cortex, midbrain, hypothalamus, brainstem, and cerebellum). (B) Subcutaneous infusion of leptin ([…], right panel) or PBS (left panel) for 7 days in ob/ob mice. Leptin levels were measured in serum, cortex, midbrain, hypothalamus, brainstem, and cerebellum. (C) Binding of GST-biotin (30 μg/ml) (panel 1) and biotinylated osteocalcin (300 ng/ml) (panels 2-4) to the dorsal (DR) and median (MR) raphe nuclei of the brainstem (identified by anti-5-HT immunofluorescence), to the ventral tegmental area (VTA) of the midbrain (identified by anti-TH immunofluorescence), and to the CA3 and CA4 of the hippocampus (identified anatomically). […] Binding with GST-biotin, osteocalcin-biotinylated, and competition assays were performed on adjacent sections. (D) Expression of Tph2 and GAD 1 in brainstem, and Th in midbrain explants from WT and Gprc6a^−/− mice, treated with 10 ng/ml osteocalcin or vehicle. (E) Gene expression in WT primary hindbrain neuron cultures treated with 10 ng/ml osteocalcin or vehicle. (F) Calcium flux response of primary hindbrain cultured neurons to osteocalcin treatment. (G-H) Extracellular current recordings of (G) neurons of the dorsal raphe nucleus and (H) GABAergic interneurons of the brainstem treated with osteocalcin (10 ng/ml).
Brains from 8-week-old mice were snap-frozen in isopentane, and […] thick sections were prepared and desiccated overnight at 4° C. under vacuum. On the following day, sections were rehydrated in ice-cold binding buffer (50 mM TrisHCl [pH 7.4], 10 mM MgCl2, 0.1 mM EDTA and 0.1% BSA) for 15 min and incubated for 1 hr in the presence of biotinylated osteocalcin (3, 30, 300, 3000 ng/ml) or biotynylated recombinant GST as a control ([…]). After washing in harvesting buffer (50 mM Tris-HCl, pH 7.4), samples were fixed in 4% paraformaldehyde for 15 min, washed in PBS and incubated with goat anti-biotin antibody (1:1000, Vector laboratories) over night at 4° C. Signal was visualized by incubating with anti-goat IgG Cy-3 using Leica DM 5000B microscope (Leica). The binding assays were perform on adjacent sections for each conditions tested.
This accumulation in discrete regions of the brain raised the question of whether osteocalcin binds to specific neurons in the brain. This was tested by incubating sections of adult or embryonic (E18.5) WT brains with biotinylated undercarboxylated osteocalcin or GST-biotin alone (30 μg/ml), followed by immunofluorescence analysis using an anti-biotin antibody. […]

[2] = biotinylated undercarboxylated osteocalcin, WT brain sections

B1: uncarboxylated osteocalcin: Recombinant osteocalcin bacterially produced, cleaved from the GST subunit; completely undercarboxylated at all three sites (protein, listed as Homo sapiens)
chain: MRALTLLALLALAALCIAGQAGAKPSGAESSKGAAFVSKQEGSEVVKRPRRYLYQWLGAPVPYPDPLEPRREVCELNPDCDELADHIGFQEAYRRFYGPV
modifications: uncarboxylated
notes: Recombinant osteocalcin bacterially produced, cleaved from the GST subunit; completely undercarboxylated at all three sites
% freezing on Day 1 (WT mice; 10 ng injected 24 hours prior to context exposure, 3.5 month old mice): the same for both groups
freezing behavior compared to controls, 24 hours after the initial shocks (WT mice): increased freezing behavior
freezing behavior compared to controls, 24 hours after the initial shocks (WT mice; listed as recombinant uncarboxylated osteocalcin): increased freezing along with hyperexcitability
binding in the brainstem [1, 2]: bound to neurons of the raphe nuclei
binding in the midbrain [1, 2]: bound to the ventral tegmental area and the substantia nigrae
binding to neuronal populations of the brain ([1]; biotinylated undercarboxylated osteocalcin, adult or E18.5 WT brain sections): bound to several neuronal populations in the forebrain, midbrain, and brainstem
specificity of binding in the midbrain and brainstem (competition) ([1]; excess of unlabeled osteocalcin versus excess of GST): specific
